Test results from the supplement of paper PMC12042874.
± gives the uncertainty stated by the source.

Assay: amyloid nucleation score (Sup35N fusion, yeast selection) (log enrichment); library NNK3; higher = more nucleation; inactive = no reads after selection
Summary of the method: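 Psi-negative yeast expressed Sup35N fused to peptides of 20 random codons. They were induced 24 hours with 100 μM copper sulfate, grown 7 days at 30°C without adenine and uracil, and their plasmid inserts from input and output were Illumina-sequenced. The nucleation score is the DiMSum log enrichment of output over input reads, centred on the mode score of non-aggregating sequences. Sequences with under 100 input reads were excluded.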

| Substance | amyloid nucleation score |
| --- | --- |
| IWMWLKTQSISRLGTGRTTN | inactive |
| FCRMVPLIEWSVTRFRDCVG | inactive |
| AWSDPSDQQPEQLRVVVDFL | inactive |
| LSMFTFCRYPGCQRLDRKPY | 1.23 ± 0.1 |
| FFLYSNIFQLS | 2.32 ± 0.092 |
| TVMVKSSYGLNCFGRSF | 0.743 ± 0.13 |
| RGAFSPVVWSDRMELLGRWL | inactive |
| KMCDECIVLS | inactive |
| LGKPASSTQSMWNSFVYWLP | inactive |
| LFVLELVRIWVTYNWCSVSF | inactive |
| RMLMIMVACVGTYDSSN | inactive |
| SVSADGGFCIHGQTRPMAGL | 1.21 ± 0.095 |
| VRGNYRNSFACRVLNHDQFW | inactive |
| IIEPYTFCFRICVWGGEWIV | inactive |
| TAWGMLGGPE | inactive |
| TNGLVLHRSWLEFFLYYTQR | inactive |
| CSNWLWWYYYVRMYRSVRFS | -0.368 ± 0.64 |
| LSRFD | inactive |
| SLKGVITSFVRNVFFNRAMY | inactive |
| ELLCLIYMDLHVCWQGLTMQ | inactive |
| AYRSKLKLCSYWIMGCVHPL | inactive |
| KYYWFMF | 1.78 ± 0.096 |

| Substance | amyloid nucleation score |
| --- | --- |
| VSRVSLKRRYALM | -1.13 ± 2.5 |
| LSVDRL | -0.632 ± 0.9 |
| CRVAMILSCFTMVFCSQAAT | 1.5 ± 0.081 |
| NRSSKWVISYRATICLLPMD | inactive |
| DTMSKPSLLLGIPCVTHDVA | inactive |
| KNEAPRTGQTRPRSTGMYRI | inactive |
| DFDILGSDHISWWYGRFDKT | inactive |
| ESYLQRPRTSTRMFVMRLKV | inactive |
| HTRWLGYNSHRGYLFLMSKF | 0.104 ± 0.9 |
| MKLVDLGVEIRLRRLAVSSV | inactive |
| SPAHGLGFDMKMVVFMFGDR | 1.54 ± 0.12 |
| ESYRTKFIVFGWGL | 0.835 ± 0.12 |
| WLLHLIYD | inactive |
| QRFFRCIRSRSWTFTSGVIV | inactive |
| FLSCCKGCLCCCQRPLSIYY | inactive |
| YNGGIRVTLT | inactive |
| IIIFWLFLSGEIDECNNCAV | inactive |
| SNSYYWPNLYVFSTVNMVSD | 2 ± 0.098 |
| SLFFN | inactive |
| GSRLSIQTFMTS | inactive |
| SLAVGLLNCLL | 2.17 ± 0.075 |
| KLVYFRVFKSRFRSRVGGMV | inactive |

| Substance | amyloid nucleation score |
| --- | --- |
| DQMIEDRNWNGVNDYSYNAC | inactive |
| SVTFANTSRHYPLADLSTPT | 0.162 ± 0.27 |
| KLSSKY | inactive |
| LEVHIFKDPEY | inactive |
| RMRDRSGMGRTFHHGTQTTV | inactive |
| IATTDIYAAYFYSLMQAIYR | inactive |
| EWQSYYSKQRIGSGPFQLFC | 0.179 ± 0.3 |
| DWTRFPSAFTGVQKSLVD | inactive |
| LHQCRDKL | inactive |
| GENIEYMF | 0.025 ± 0.31 |
| CLQDPFPTIVPIVMGSIAKE | inactive |
| NITFISSWIMQEYTFVLCSF | 1.96 ± 0.065 |
| AFKECARRR | inactive |
| RLTYIVCSA | inactive |
| SMCRTPILQPIAVQNVSMGR | inactive |
| LLGWCCSDNPDRRKEY | inactive |
| VRESAWGLYNRYFSVFSAVV | inactive |
| ETDCRSAQSIC | inactive |
| CNLGWRNLDMVKG | inactive |
| SKLWSYWDLSWLTLKVGWLR | inactive |
| HELFRTSHRLRCYFNPHSHI | inactive |
| NWRPV | inactive |
